Consider 17 sequences from a protein production outcome set (Wang et al. 2014).

The data set can be described thus: label from the status in PepcDB records.
As to “MKTLTTPAPTKSASFREGVFDSLPIVIGYMPVAFAFGMNAVKLGFTPLEGIFLSCIIYAGASQFVITALLSAGMSIWVAALTVMAMDIRHVLYGPALRHRIVQQLPTRKTALWAFGLTDEVFAAAATRLAKDNRRWSENWMIGVSLLAWLSWVLGTVIGAVFGNGPLDNYPAVEAALSFMLPALFLSFLLASFKRKQSLVVACALGGALLGLLLSSIPAAILLGILSGCLASLVNSATPQVNA”, the protein production result was “failed”.
Next, “MKTLVHLSDLHFGKTESQLVDAIAAEVRAVDSDLLVVSGDLTQRARKDEFLQARAFLDSLPGPRIVVPGNHDVPLWNVFARAMTPLSRYRRYIEADTDPFYADSEVAVVGINTARSLTIKDGRINVRQLKAATEKFAHMSDDITRIVVTHHPFEGRDLESDDGIVGRADLAMHAFSRSGVDIILSGHQHLHRAGSSARRYLIDGYAALLIQAGTAVSSRLRRAANSFNIIRIEHPRISVECRAWQPSQSGFETSASYSFRQGPGGWKPT”: “failed”; “MKTPTFGKREETLTYQTRYAAYIIVSKPENNTMVLVQAPNGAYFLPGGEIEGTETKEEAIHREVLEELGISVEIGCYLGEADEYFYSNHRQTAYYNPGYFYVANTWRQLSEPLERTNTLHWVAPEEAVRLLKRGSHRWAVEKWLAAAS”: “not failed”; “MKTRCGCKKIASYTVVKLILNRLDVAMNSTIRRWFASAGAMRRVFSTFAPYLGAGIKVTHIADDFSSATVEMRQHWYNTNYVGTHFGGSLYSMVDPMYMLLLMRSLGNDYIVWDKSASIDFIRPGKGVVKAHFELTDARLDEIREATADGDKYLPEWYIDIVDEAGTVVSRVHKVLYVRRKPAE”: “failed”.
Regarding “MKTRMKITIAFVAVMVLSFTGYNVYKTQKAIQLSDVAMANVEALADGEGTNAGYCYLEDTWSTKRGYKYFCDSKTDKNTIYPCPSSMESGWYDDNKQDRCTK”, the protein production entry was “failed”.
In the case of “MKTTALRLYGKRDLRLETFDLPEMQEDEILATVVTDSLCLSSWKEANLGENHKKVPDDVATNPIIIGHEFCGDILAVGKKWQHKFQPGQRYVIQANLQLPDRPDCPGYSFPWVGGEATHVVIPNEVMEQDCLLAYDGETYFEGSLVEPLSCVIGAFNANYHLQEGSYNHTMGIRPQGRMLILGGTGPMGLLAIDYALHGPVNPSQLVITDTDNDKLSYARKHYPSEPQTLIHYLNAADAAFDTLMALSGGHGFDDIFVFVPNEGLVTLASSLLATDGCLNFFAGPQDKHFSAPINFYDVHYAFTHYVGTSGGNTDDMRAAVKLIEEKKVQAAKVVTHILGLNAAGETTLELPAVGGGKKLVYTGKYLPLTSLTQIQDQALAAILARHQGIWSGEAEQYLLTHAEAISHD”, the protein production entry is reported as “failed”.
Next, “MKTTALRLYGKRDLRLETFDLPEMQEDEILATVVTDSLCLSSWKEANLGENHKKVPDDVTTNPIIIGHEFCGDILAVGKKWQHKFQPGQRYVIQANLQLPDRPDCPGYSFPWVDGEATHVVIPNEVMEQYCLLAYDGETYFEGSLVEPLSCVIGAFNANYHLQEGSYNHTMGIRPQGHTLILGGTGPMGLLAIDYALHGPVNPSLLVITDTDNDKLSYARKHYPSEPQTLIHYLNATDAAFDTLMALSGGHGFDDIFVFVPNEGLVTLASSLLATDGCLNFFAGPQDKHFSAPINFYDVHYAFTHYVGTSGGNTDDMRAAVKLIEEKKVQAAKVVTHILGLNAAGETTLELPAVGGGKKLVYTGKYLPLTSLTQIQDQALAAILARHQGIWSGEVEQYLLAHAEAISHDLEHHHHHH”: “failed”.
Next, “MKTTLIISTYNRPEALSVCLDSVRFQTVMPDEVIVGDDGSTSETKDLIESFKKDFPVPLIHLWQEDKGFRLAMMRNKSVAAATGDYIIEIDGDIFLHNKFVEDHKRLAKPGHYLRGTRVNLGQKLTEEICKSKVNRRIYPWTIGIQNRAETAIHSTPVSNFFADRYKKNVSSGLGCNMSFWRSDFLAINGYDEFFEGWGKEDDDLTHRLQRKGCKKRSLRFAGIVYHLWHGHESMESDQKNAEYFRKNNEKNIVYCENGVSKYLKQELEHHHHHH”: “not failed”; “MKTTYNRWWKKKVWFGRKDMSYKVIVDSCGEFTPEMKADGGFEHVALGIQIEDTQWTDDDSLKQEELLLKIAESTSCAKTSCPSPERYMESYHCDAERIYVVTLSAELSGSYNSAVLGKNLYEEEYGEKQIHVFNSRSASVGETLIALKVQQCEKAGMTFEEVVESVECYIEEQHTYFVLENLDTLRKNGRLTGIKSLVAGALNIKPIMGSTPQGTICQKEKARGMKKALVKMADCVAADVVNAGDKILAIAHCNCEERAKEVQRLLKERFAVKSSFIVDTSGISTVYANDGGIIVVV”: “not failed”; “MKTYTLIATAPMGIEAIVAKEVRDLGYDCTVDNGKVVFEGDALAICRANLWLRTADRVKVQAAEFIAKTFDELFEKTKAIDWSAYLPEHASFPVTGKSVKSVLASVPDCQRIVKKAIAEKLKSEYQTQGEWLEETGPEYKIEVSLLKDKAVITLDSSGAGLHKRGYRTGQGEAPLKETLAAALILLTNWTPDRPFVDPFCGSGTIPIEAALIGQNIAPGFNRDFASERWEWIGKEVWDQARLEVEEKANYDQPLSISGYDLDHRMIEIAKANAEEAGLADFIEFKQMQVKDFRTKEEYGVIVGNPPYGERLGEKKAVEAMYKDMGKAFAELDTWSVYMLTSNERFEECYGKKATKKRKLFNGFIKTDYYQYWGKRPPKPNKEK”: “not failed”.
For the sequence “MKVALGGTFEPLHEGHKKLIDVAIKLGGRDITIGVTSDRMARARIRSVLPFAIRAENVKRYVMRKYGFEPEIVKITNPYGKTLDVDFEYLVVSPETYEMALKINQKREELGKRKITIVKVDWMMAEDGKPISSTRIKRGEID”, the protein production result is listed as “not failed”.
For the sequence “MKVAVLVGGVGRRIGMEKTEVMLCGKKLIEWVLEKYSPFQTVFVCRDEKQAEKLSSRYEAEFIWDLHKGVGSIAGIHAALRHFGSCVVAAIDMPFVKPEVLEHLYKEGEKAGCDALIPKHDYPEPLLAYYAESAADELERAILQGIRKILVPLERLNVVYYPVEKLRKFDKELISFFNINTPDDLKRAEEICSKMSTEGLLEHHHHHH”, the protein production result is listed as “not failed”.
Next, “MKVCLQCENFFSSADWACPSCGYQPERLNGIEAHASEFAHGGGGFKPEYFSELSRLEAGNFWFRARNELILWALRTYKPNAGAFLEVGCGTGFVLSGIARACPEIALNGSEIFLAGLFHAAKRVPSTHFMQMDARRVPFVEEFDAIGAFDVLEHIEEDETVLAQLHNAIKPSGVLLLTVPQHPRLWSASDDYACHVRRYTRVEIEQKVLTAGFELLRSSSFVTSLLPVMMLSRVLQKRKTKDFDPAGELKINAALNKVFYGLMMLELAGIRLGMNYPVGGSRLVVAKKQSALEHHHHHH”: “not failed”.
As for “MKVFIAGGRGRVGSLLADNLEAKGIEVVSGGLEDGIDVISGKGLTEALAGVDTIVNVLNTPRFDAEGAISFFEGAINNLTAEGERAGVRHHIVLSIVGVGQGDASEVGYYLGKVAQEKAVRSASIPATIIRATQFQSYIPVLIDQHTVDGKVIAPRSFVQPVELDEVIELLAEAATTLEPGSEVEIAGPDRFYHDDLFRATLADRGDDREVVTVDAEGAPDVMVPRGAYRTGTVRYPITGIPTV”, the protein production result was “failed”.
Next, “MKVGAVVITMGNRPEELRALLDSVAKQDGDPVQVVVVGNGSPVPEVPEGVRTVELPENLGIPGGRNVGIEAFGPGGSDVDILLFLDDDGLLARTDTAELCREAFAADDELGIISFRIADPDTGETQRRHVPRLRASDPMRSSRVTTFLGGANAVRTRVLTQVGGLPDAFFYAHEETDLAWRALDAGWMIDYRSDMVLNHPTTAPSRHAVYHRMVARNRVWLARRNLPALLVPVYLGVWMALTLLRRPSRPALKAWFGGFREGWATPCGPRRPMRWRTVWRLTRLGRPPVI”: “failed”; “MKVIMTTKVDKASMNIMNKLIENFGFKETEYVFDGNPVYKRGDVLILTTNDEMIYYDYLDREIENQLGFKPEIIAFASRHSSKQKLPALTTHVTGNWGKAMYGGKDESFAVAIPSAMKLSLLKMSELNDLGWTVCYEATHHGPTELEVPSFFIEIGSSEEEWINDRAGEIIAETIIYVLDNYEKGRSKFKVALGIGGGHYAPKQTKRALEGDLAFGHILPKYAQPVSRDVMIKALNRFGEKVEAIYVDWKGSRGETRQLAKSLAQELGLEFIKD”: “not failed”.
For “MKVLLDTNIIVDFLSKRPVFFNEAEKIISKCRDGEIIGIVAVHTVSTLFYLLKKYVSPETLRDIFYNLFEIIEIGRADKNSVLEALKNTEFTDFEDGLQYQCALEEFVDCIITRNKKDFFSSKIPVYTPSEFLKSLLEHHHHHH”, the protein production entry is given as “failed”.
